Test results taken from the nanobody polyreactivity screen of Harvey et al. (2022).

Assay: yeast display, Sf9 membrane polyspecificity reagent, FACS + sequencing; frameworks hold sequencing errors
Outline: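 Nanobodies came from a synthetic yeast display library in Saccharomyces cerevisiae BJ5465, induced with galactose for 36–48 hours and stained for 1 hour at 4 °C with 10% biotinylated, detergent-solubilized Sf9 membrane reagent. Cells were enriched on streptavidin microbeads and then FACS-sorted, with low and high (top ~1%) gates set on anti-HA fluorescence for expression and streptavidin fluorescence for reagent binding. Each polyreactivity label reflects the gate a clone came from. Genes were amplified by colony PCR, sequenced by MiSeq 2 × 250 and filtered by CDR length.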

Sequence | polyreactivity (PSR sort gate)
HVLLQESGGGLVQAGGTLRLSCAASGTITTDIRMGWYRLAPGKEREFVASIDGCSTTYYADSVKGRFTISRDNAKNTVYLQMNSLKPEDTAMYYCAAREATEFYLFYWGQGTQVTVSS | low polyreactivity
HVNLVESGGGLVKAGGSLRLTCDASGITFYEYAMGRYRRAPGKELELVAGIRLSGSTTYYADSVKGRFTISRDNSKNTVYLQMHSLKPEDTAVYYCNVDYYSGLYDYDSWGQGTQVTVSS | low polyreactivity
HVQLEESGGGLVQAGGSLRLSCAASGSISRANPSGWSRTAPGKERELLPANSRGGTTTYYADSVKGRFTISRDNAKNTVYLQMNSLKPEDTAVYYCAAVAGGGFPRWRIYFWPKGDYWGQGTQVTVSS | high polyreactivity
HVQLGESGGGLVQAGGSLRLSCAASGSTFFPYAMGRYRQAPGKEMELVAAISYSGDSTYYADSVKGRFTISRDTAKNTVYLQMNSLKPEDNAVYYCNAVYFRYRYKYWGQGSQVTVSS | high polyreactivity
HVQLQESGGGLVLAGGSLRLSCPASGNIVVYSYMGWYRQAPGKAREFVAAIGAGSTTYYADSVSRFTISRDNAKNSVYLQMNSLKQVDTAVYYCSVEFQYAGFWYWGQGTQVTVSS | low polyreactivity
HVQLQESGGGLVQAGGSLRLSCAASGNISYSRNMGWYRQAPGKERELVAAIDRGAITYYADSVKGRFTISRDNAKNTVYLQIYSLKPEDTAVYYCAAEYHDRGDHRYWGQGTQVTVSS | high polyreactivity
HVQLQESGGGLVQAGGSLRLSSAASATITYSRNMGWYRQAPGKELELVAAIDRGAITYYADSVKGRFTISRDNAKNTVYLHIYSLKPEDTAVYYCAAVYHDRWDHRFWGQGTQVTVSS | high polyreactivity
HVQLQESGGGLVQAGGSLRQSCAASGYIFPYYSMGLYRQAPGKERGLVACIAAGTTTNYADSVKGRFTISRDNAKNTVYLQMNSLKPEDAAVYYCAALNAFNTGHWYWGQGTQVTVSS | low polyreactivity
HVQLQESGGGLVQAGGSMRLTCAASGQKSSYYSMGWNRQAPGKEREFVATIAVGGTTNYADSVKGRFTISRDNAKNTVYLQMNSLKPEDTAVCFCAANSTQYTWFDYWGQGTQVPVSS | low polyreactivity
HVQLQESGGGLVQVGGSLRLSCAASGTIFIYGFLGWNRQAPGKERELVASINLGGITNYADSVKGRFTIRRDNAKNTVYLQMISLKPEDTAVYYCAAYVVTGQNYGYWGQGTQVTVSS | low polyreactivity
HVQLQESGGVLVQARGSLRLSCAASGNISYSRNMGWYRQAPGKERELVDAIDRGAITYYADSVKGRFTISRDNANNTVYLQIYSLKPEDSAVYYCAAEYHDRWDHRYWGQGSQVTVSS | high polyreactivity
HVQLVDSGAGLVQAGGSLRLSCAASGRTFAYYAMGWYREATRKERELVAAIDSSGGSTYYADSVKGRFTISRDNAKNTVYLQMNSLKPEDTAVYYCAASYPYDRYDQGGYGYWGQGTQVTVSS | low polyreactivity
HVQLVESAGGLVQAGGSLSLSCAASGSTFKLYAMGRYRQAPGKESEFVAGISWRGGSTYYADSVKGRFTISRDNAKNTVYFQMNSLKPEDTAVYYCAARSFSNIGYHGYGYWGQGTQVTVSS | high polyreactivity
HVQLVESGAGLVQAAGSLRLSCAASGRPLDSNAMGGYRQAPGKDRELVAAITYSGGSTYYADSVKGRFTISRDNAKNTVYLQMNSLKPEDTAVYYCAKVGRLYRVGGYDYWGQGTQVTVSS | low polyreactivity
HVQLVESGGGFVQAAGSLRLSCAASGSIFAGYAMGWYRQAPGKERELVAAINSSGGSTYYADSVKGRFTISRDNSKNTVYLQMKSLKPEDTAVYDCNRVYKRYYIGGYDYWGQGTQVTVSS | high polyreactivity
HVQLVESGGGLVQAGASLRLICAASGRIFWGYAMGWSRHAPGKERELVAGITYSGGSTYYADSVKGRFTISRDNAKNTVYLQMNSLKPEDTADYYCAAAKSYRSGSWYEYWGQGTQVTVSS | high polyreactivity
HVQLVESGGGLVQAGGILRLSCAASGRIFYRYEKGWYRQAPGKERELVAAITAGGNKYYADSVKGRFTISRDNAKNTVYLQMNSLKPEDTAVDYCGAGTTYSRYSVTRVDYWGQGTQVTVSS | high polyreactivity
HVQLVESGGGLVQAGGRLRLSCAASGRTFWYYTMGWYRQAPGKDRELVAAITSVGSTYYADSVKGRFTISRDNAKNTVYLQMNSLKPEDTAVYYCAKLYSYTHQSFDHWGQGTQVTVSS | high polyreactivity
HVQLVESGGGLVQAGGRLRLSCAPSGSIFGLYGMGWYRQAPGKEREFVAAISQSGGRTYYADSVKGRFTISRDNAQNTVYLQMNSLKPEDTAVYYCATYVQRRGQYGIYDYWGQGTQVTVSS | high polyreactivity
HVQLVESGGGLVQAGGSLRISCAASGRIFSTYTMGWYRQAPGKERELVAAIRANCGSTYYADSVKGRFTISRDNAKNTVYLQMNSLKPEDTAVYYCAALYRRYPYHYDSWGQGTQVTVSS | high polyreactivity
HVQLVESGGGLVQAGGSLRLSCAASGFTFDYNTMGWSRQAPGKEREVVAGISRGGGSTYYADSVKGRFTISRDNAKNTVYLQMNSLKPEDTAVYYCNTVLKRQRKNEYWGQGTQVTVSS | high polyreactivity
HVQLVESGGGLVQAGGSLRLSCAASGFTFNYNALGGYRQAPGKERELVAAIRRSGGSTYYADSVKGRFTISRDNAKNTVYLQMNSLKPEDTAVYYGAARQSFLYGDWGQGTQVTVSS | high polyreactivity

Sequence | polyreactivity (PSR sort gate)
HVQLVESGGGLVQAGGSLRLSCAASGFTFSGYVMGWYRQAPGKERELVAAISNSGGRTYADSVKGRFTISRDNAKNTVYLQMNSLKPEDTAVYYCAKKPGGFSQASRVDYDYWGQGTQVTVSS | low polyreactivity
HVQLVESGGGLVQAGGSLRLSCAASGFTVYRYTLGWYRQAPGKERELVAAITWSGGNTYYADSVKGRFTISRDNAKNTVYLQMNSLKPEDTAVYYCAAYKPYSKSNYRGQGTQVTVSS | high polyreactivity
HVQLVESGGGLVQAGGSLRLSCAASGGIFYGNVMGWYRQAPGKERELVADITSVGSTYYADSVKGRFTISRDNAKNTVYLQMNSLKPEDTAVYYCAAEPDHVADSHSGYDYWGQGTQVTVSS | low polyreactivity
HVQLVESGGGLVQAGGSLRLSCAASGGTFTKYAMGWFRQAPGTEMELVAAISWRGTSTYYADSVKGRFTISRDNAKNTVYLQLYSLKPEDTAVHYCLPWVGYGRYKPGYKYDYWGQGTQVTVSS | high polyreactivity
HVQLVESGGGLVQAGGSLRLSCAASGLIFYNYAMGWYRQAPGKERELVAAITGSGGSTYYADSVKGRFTISRDNAKNTVYLQMNSLKPEDTAVYYCAADGIYTFEYWGQGTLVTVSS | low polyreactivity
HVQLVESGGGLVQAGGSLRLSCAASGLTFDVNAMGWYRQAARKERELVAAITADDGSTYYADSVKGRFTISRDNAKNTVYLQMNSLKPEDTAVYYCAADYVNLPYIMDYWGQGTQVTVSS | low polyreactivity
HVQLVESGGGLVQAGGSLRLSCAASGLTFSRYTMGWYRQAPGKERELVAAISRSGASTYYADSVKGRFTISRDNAKNTVYLQMNSLKPEDTAVYYCAKTSTSYGSLRKVTPYPLDYWGQGTQVTVSS | high polyreactivity
HVQLVESGGGLVQAGGSLRLSCAASGRISLFNAMGWYRQAPGKERELVAAITYTGGSTYYADSVKGRFTISRDNAKNTVYLQMNSLKPEDTAVYYCAAEYYYVYTYDYWGQGTQVTVSS | high polyreactivity
HVQLVESGGGLVQAGGSLRLSCAASGRIYWANAKGRYRQAPGKERELVAAISYSGGTYYADSVKGGFTISRDNAKNTVYLQMNSLKPADTAVYFCAAVDRRDGTKRWGFDYWGQGTQVTVSS | high polyreactivity
HVQLVESGGGLVQAGGSLRLSCAASGRTFNVNAMGWYRQAPGKERELVAAIDFSDGRTYYADSVKGRFTISRDNAKNTVYLQMNSLKPEDTAVYYCARSFRVGNTWYDYWGQGTQVTVSS | high polyreactivity
HVQLVESGGGLVQAGGSLRLSCAASGRTFVNNAMGWYRQAPGKERELVAAISQSGSRTYYADSVKGRFTISRDNAKNTVYLQMNSLKPEDTAVYYCAARGARYSTSDYWGQGTQVTVSS | high polyreactivity
HVQLVESGGGLVQAGGSLRLSCAASGSIFFRNTMGWTRQAPGKEREKVAAITRGGGRTYYADSVKGRFTISRDNAKNTVYLQMNSLQPEDTAVYYCNTADYHGRWAFAWYGDYWGQGTQVTVSS | high polyreactivity
HVQLVESGGGLVQAGGSLRLSCAASGSIFWRYAMGWYRQAPGKERELVAAITWSGGTSYADSVKGRFTISRDNAKNTVYLQMNSLKPEDTAVYYCNADGLSYYLYDYWGQGTQVTVSS | low polyreactivity
HVQLVESGGGLVQAGGSLRLSCAASGSSLDYYVMGWYRQAPGNERELVAAIRGGGSTYYADSVKGRFTISRDNAKNTVYLQMKSLKPEDTEVYYCAKDSQTARDFDYWGQGTQVTVSS | low polyreactivity
HVQLVESGGGLVQAGGSLRLSCAASGSSSAKYAMGWYRQAPGKERELVAAITSRADSTYYADSVKGRFTISRDNAKNTVYLQMNSLKPEDTAVYYCNVRITVYRSDVWYFIYDYWGQGTQVTVSS | low polyreactivity
HVQLVESGGGLVQAGGSLRLSCAASGSTFGGNAMGWYRQAPGKERELVAAISKSGGRTFYADSVKGRFTISRDNAKNTVYLQMISLKPEDTAVYYCAAQYRGYGYWGQGTQVTVSS | high polyreactivity
HVQLVESGGGLVQAGGSLRLSCAASGSTFGSYALGWYRQAPGKERELVADISSRGASTYNADSVKGRFTISRDNAKNTVYLQMNSLKPEDTAVSYCATDKLYGRTVRMDYWGQGTQVTVSS | low polyreactivity
HVQLVESGGGLVQAGGSLRLSCAASGSTFGYYTMGWYREAPGKERELVAAISWSGGSTYYADSVKGRFTISRDNAKNTVYLQMNRLKPEDTAVYYCAALGYTYKYYSYYWGQGTQVTVSS | high polyreactivity
HVQLVESGGGLVQAGGSLRLSCAASGSTFIGYDMGWYTQAPGKERELVAAISYYDGTYYADSVNGSFTISRDNAKNTVYLQMNTLKPEDTAVYFCGVYRYDYWGQGTQVTVSS | low polyreactivity
HVQLVESGGGLVQAGGSLRLSCAASGSTFSAYAMGWDRQAPGKERELVASISYSGSSTYYADSVKGRFTISRDNAKNTVYLHMNSLNPEDTAVSSCAADDRYWGPGGPLSRWSRGMYYWGQGTQVTVSS | high polyreactivity
HVQLVESGGGLVQAGGSLRLSCAASGSTFSSYAMGWYRQAPGQERELVAAITGGGANTYYADSVKGRFTISRDNAKNTVYLQMNSLKPEDTAVYYCNARSGYLHSKWTGYYWGQGTQVTVSS | low polyreactivity
